# T1: human 2-oxoglutarate dehydrogenase (hE1o) (human, UniProt Q02218 41-1023)
# T1 sequence (looked up): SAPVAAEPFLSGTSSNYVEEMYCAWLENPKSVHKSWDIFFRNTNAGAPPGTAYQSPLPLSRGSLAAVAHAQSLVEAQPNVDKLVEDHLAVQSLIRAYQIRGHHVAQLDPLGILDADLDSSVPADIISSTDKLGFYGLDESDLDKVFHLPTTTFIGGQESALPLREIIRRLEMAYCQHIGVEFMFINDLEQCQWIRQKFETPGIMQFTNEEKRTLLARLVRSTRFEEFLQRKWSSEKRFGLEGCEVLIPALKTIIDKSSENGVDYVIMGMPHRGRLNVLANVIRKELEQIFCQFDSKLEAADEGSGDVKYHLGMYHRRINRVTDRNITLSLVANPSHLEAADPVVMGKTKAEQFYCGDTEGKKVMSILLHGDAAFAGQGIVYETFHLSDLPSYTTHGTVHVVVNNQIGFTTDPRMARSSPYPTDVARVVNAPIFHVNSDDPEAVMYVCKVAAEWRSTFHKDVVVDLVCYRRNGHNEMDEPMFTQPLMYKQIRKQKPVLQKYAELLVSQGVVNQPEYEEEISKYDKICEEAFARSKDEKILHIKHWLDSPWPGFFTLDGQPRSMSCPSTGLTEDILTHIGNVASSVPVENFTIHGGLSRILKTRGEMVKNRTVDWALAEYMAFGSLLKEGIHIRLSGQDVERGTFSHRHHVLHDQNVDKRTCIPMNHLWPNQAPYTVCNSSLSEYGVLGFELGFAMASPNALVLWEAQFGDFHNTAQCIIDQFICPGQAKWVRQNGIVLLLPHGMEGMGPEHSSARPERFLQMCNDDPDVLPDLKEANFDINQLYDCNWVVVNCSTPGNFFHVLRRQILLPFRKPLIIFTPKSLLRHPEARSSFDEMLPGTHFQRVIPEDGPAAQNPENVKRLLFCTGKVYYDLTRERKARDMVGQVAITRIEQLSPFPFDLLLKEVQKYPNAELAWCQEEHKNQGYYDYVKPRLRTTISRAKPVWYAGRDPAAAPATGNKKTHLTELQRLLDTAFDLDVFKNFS
# Target: T1, human 2-oxoglutarate dehydrogenase …
# Assay: cross-linking
binder,measurement,value
"human dihydrolipoyl succinyltransferase (hE2o) (enzyme, UniProt P36957 68-453, looked up) DDLVTVKTPAFAESVTEGDVRWEKAVGDTVAEDEVVCEIETDKTSVQVPSPANGVIEALLVPDGGKVEGGTPLFTLRKTGAAPAKAKPAEAPAAAAPKAEPTAAAVPPPAAPIPTQMPPVPSPSQPPSGKPVSAVKPTVAPPLAEPGAGKGLRSEHREKMNRMRQRIAQRLKEAQNTCAMLTTFNEIDMSNIQEMRARHKEAFLKKHNLKLGFMSAFVKASAFALQEQPVVNAVIDDTTKEVVYRDYIDISVAVATPRGLVVPVIRNVEAMNFADIERTITELGEKARKNELAIEDMDGGTFTISNGGVFGSLFGTPIINPPQSAILGMHGIFDRPVAIGGKVEVRPMMYVALTYDHRLIDGREAVTFLRKIKAAVEDPRVLLLDL",binding result,binds
